Measurements: the supplement of paper PMC9732359
± gives the uncertainty stated by the source.

Assay: protein stability index of a GFP-peptide fusion (yeast GPS) (PSI 1-4); higher = more stable; sorted into four equal gates, so the index is relative within each strain
Summary of the method: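 The protein stability index of a peptide was calculated by multiplying its read frequency in each gate by that gate's number and adding the products. The peptides were tiled 17-residue stretches of yeast proteins, fused downstream of GFP on a Cherry-expressing plasmid and carried in yeast as a pooled library. Mid-log cultures in leucine-free medium were sorted into four equal gates by GFP/Cherry ratio, and each gate's plasmids were PCR-amplified and Illumina-sequenced.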

| Sequence | protein stability index (doa10∆) | protein stability index (pdr5∆) | protein stability index (san1∆) | protein stability index (ubr1∆) |
| --- | --- | --- | --- | --- |
| ECSKDMKEDGLSFVDIV [SIR4] | 2.75 ± 0.17 | 3.39 ± 0.1 | 3.1 ± 0.088 | 3.03 ± 0.065 |
| NSSKYYINEKESSYTEV [SMC4] | 3.2 ± 0.22 | 2.38 ± 0.1 | 2.43 ± 0.12 | 1.89 ± 0.11 |
| RDIFQEDEENSDVLLFQ [RGR1] | 3.37 ± 0.061 | 3.46 ± 0.071 | 3.4 ± 0.039 | 3.23 ± 0.035 |
| KPGRMPFNFTVTLFQMA [CDC53] | 1.65 ± 0.039 | 1.99 ± 0.043 | 2.17 ± 0.08 | 2.05 ± 0.051 |
| IYNNIVSNIEGILDEIM [RGR1] | 2.72 ± 0.08 | 2.09 ± 0.066 | 2.15 ± 0.098 | 2.46 ± 0.05 |
| RRFNSSIGRTAQGKEFG [RPL17A] | 3.03 ± 0.078 | 2.96 ± 0.089 | 2.95 ± 0.098 | 2.89 ± 0.07 |
| LIEPLPTESYLQYIIHD [BRR2] | 2.42 ± 0.083 | 2.96 ± 0.065 | 2.58 ± 0.096 | 2.49 ± 0.049 |
| PNFDWDLCSSVLSQFER [ROX3] | 3.12 ± 0.079 | 2.8 ± 0.095 | 2.6 ± 0.08 | 2.59 ± 0.067 |
| EKFSPKSFISKLLGIGD [SRP54] | 3.49 ± 0.14 | 3.31 ± 0.15 | 2.68 ± 0.2 | 3.21 ± 0.17 |
| IDFAPTSPFGGARPGRV [RPS9A] | 2.82 ± 0.072 | 2.53 ± 0.074 | 2.62 ± 0.074 | 2.74 ± 0.05 |
| IVAKYDPPIIIFINYKQ [PRP28] | 2.47 ± 0.075 | 1.77 ± 0.068 | 1.98 ± 0.12 | 1.96 ± 0.048 |
| YPLLIRMSYGSHDKKTK [SRP14] | 2.61 ± 0.06 | 2.49 ± 0.069 | 2.57 ± 0.043 | 2.6 ± 0.053 |
| KGSRQCRVCSSHTGLVR [RPS29B] | 2.67 ± 0.065 | 2.79 ± 0.051 | 2.66 ± 0.056 | 2.61 ± 0.03 |
| MAVGKNKRLSRGKKGLK [RPS1B] | 1.49 ± 0.13 | 1.62 ± 0.083 | 1.64 ± 0.14 | 1.46 ± 0.12 |
| LPLPPSVEWMKVSPSMC [SIN4] | 1.75 ± 0.055 | 1.71 ± 0.05 | 1.69 ± 0.09 | 1.55 ± 0.063 |
| VNCFHEDTELYQELIKN [YJL039C/NUP192] | 2.13 ± 0.12 | 2.82 ± 0.16 | 2.83 ± 0.081 | 2.67 ± 0.056 |
| ARIKDAFITQLESSITD [YJL039C/NUP192] | 2.83 ± 0.11 | 2.25 ± 0.1 | 1.14 ± 0.11 |  |
| EIFIRCNNVLYIRELPN [SMX3] |  | 1.75 ± 0.18 | 1.53 ± 0.12 | 1.48 ± 0.12 |
| RLFIGDQNNKKMVGLRG [SNF2] | 2.65 ± 0.1 | 2.87 ± 0.085 | 2.36 ± 0.1 | 2.69 ± 0.082 |
| IHGQDFQFFPKELDALQ [ISW2] | 2.62 ± 0.048 | 2.75 ± 0.053 | 3.11 ± 0.037 | 2.78 ± 0.041 |
| LERTDLKSKVIDSPELL [RPN7] | 3.17 ± 0.073 | 3.01 ± 0.083 | 3.26 ± 0.085 | 3.2 ± 0.076 |
| FELCSLGDKELWPVAIG [YJR042W/NUP85] |  |  |  | 2.49 ± 0.28 |
| DYPSTSLDIRHDFIKGL [NUT1] | 2.9 ± 0.14 | 2.88 ± 0.076 | 3.14 ± 0.057 | 2.56 ± 0.062 |
| SGVMDKSVLGDGKKHSV [RPO31] | 3.73 ± 0.21 | 3.71 ± 0.28 | 3.31 ± 0.2 |  |
| NLDNLQKVSQLESADKQ [POP4] | 3.06 ± 0.1 | 2.59 ± 0.1 | 3.01 ± 0.092 | 2.86 ± 0.18 |
| EEYDDDDDNSNVDYYNV [SNF2] | 2.89 ± 0.067 | 2.93 ± 0.063 | 2.93 ± 0.042 | 3.06 ± 0.067 |
